# Where a chain is given by its changes, count along the chain named.
# T1: human CEA (human, UniProt P06731 35-702)
# T1 sequence (looked up): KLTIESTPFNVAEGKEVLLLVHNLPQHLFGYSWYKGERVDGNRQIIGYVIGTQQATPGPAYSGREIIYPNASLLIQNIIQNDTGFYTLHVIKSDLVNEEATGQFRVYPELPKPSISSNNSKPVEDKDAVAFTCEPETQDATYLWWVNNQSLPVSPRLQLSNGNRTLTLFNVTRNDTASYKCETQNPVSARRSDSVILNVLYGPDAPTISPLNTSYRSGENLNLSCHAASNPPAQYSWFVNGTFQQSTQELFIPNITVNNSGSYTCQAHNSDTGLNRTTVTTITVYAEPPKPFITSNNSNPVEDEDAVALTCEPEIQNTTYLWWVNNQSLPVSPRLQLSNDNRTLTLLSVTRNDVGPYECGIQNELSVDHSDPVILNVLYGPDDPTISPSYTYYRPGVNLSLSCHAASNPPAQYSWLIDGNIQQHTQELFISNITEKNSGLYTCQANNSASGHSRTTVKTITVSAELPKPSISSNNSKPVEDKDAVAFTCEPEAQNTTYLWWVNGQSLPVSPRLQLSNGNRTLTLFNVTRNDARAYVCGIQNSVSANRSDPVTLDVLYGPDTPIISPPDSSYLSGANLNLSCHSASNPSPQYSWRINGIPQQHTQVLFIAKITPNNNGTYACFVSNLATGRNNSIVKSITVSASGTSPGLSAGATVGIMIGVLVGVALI
# T2: Cynomolgus monkey CD3 protein (cynomolgus monkey, UniProt Q95LI5 22-117)
# T2 sequence (looked up): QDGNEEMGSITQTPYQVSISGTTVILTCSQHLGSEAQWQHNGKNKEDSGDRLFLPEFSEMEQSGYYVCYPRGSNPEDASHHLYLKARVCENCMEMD
# B1: CEA/CD3OPT1a3b2b1 BsAb (bispecific antibody, V domains shown)
# VH 1: EVQLVESGGGLVQPGGSLRLSCAASGFNIKDTYMHWVRQAPGKGLEWVARIDPAQGNTKYADSVKGRFTISADTSKNTAYLQMNSLRAEDTAVYYCAPFGYYVSDYAMAYWGQGTLVTVSS
# VL 1: DIQLTQSPSSLSASVGDRVTITCRAGESVDIFGVGFLHWYQQKPGKAPKLLIYRASNLESGVPSRFSGSGSRTDFTLTISSLQPEDFATYYCQQTNEDPYTFGQGTKVEIK
# VH 2: EVQLVESGGGLVKPGGSLKLSCAASGFTFSTYAMNWVRQAPGKGLEWVARIRSKYNNYATTYADSVKDRFTISRDDSKNTAYLQMNNLRTEDTAVYYCVRHGNWGNSYISYWAYWGQGTTVTVSS
# VL 2: not shown
# notes: also called CEA/CD3-1a3b2b1-BsAb; Lead CEA/CD3; copies: 2 + 2 + 2 + 2
# B2: CEA/CD3 parental BsAb (bispecific antibody, V domains shown)
# VH 1: B1 VH 1
# VL 1: B1 VL 1
# VH 2: not shown
# VL 2: not shown
# notes: also called hT84.66/SP34 bispecific antibody; CEA/CD3 parental bispecific antibody; copies: 2 + 2 + 2 + 2
# B3: CEA/CD3OPT1a (bispecific antibody, V domains shown)
# VH 1: B1 VH 1
# VL 1: B1 VL 1
# VH 2: B1 VH 2 with T61Y, W104F
# VL 2: not shown
# notes: Same format as m1; also called OPTSP34 1a; copies: 2 + 2 + 2 + 2
# B4: CEA/CD3OPT3a (bispecific antibody, V domains shown)
# VH 1: B1 VH 1
# VL 1: B1 VL 1
# VH 2: not shown
# VL 2: not shown
# notes: Same format as m1; copies: 2 + 2 + 2 + 2
# Target: T1, human CEA
# Experiment: cell-based or functional assay
row,Binder,killing of LS-174T cells by PBMC at E:T ratio of 5:1
1,B1,20%

# Target: T3, human CD3 (human, UniProt P07766 23-207)
# T3 sequence (P07766 23-207): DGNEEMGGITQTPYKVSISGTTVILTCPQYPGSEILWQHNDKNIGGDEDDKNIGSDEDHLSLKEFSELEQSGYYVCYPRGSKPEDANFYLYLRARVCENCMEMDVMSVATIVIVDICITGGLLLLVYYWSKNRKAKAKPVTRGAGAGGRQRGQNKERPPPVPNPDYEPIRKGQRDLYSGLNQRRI
# Experiment: cell-based or functional assay
Binder,NFAT-luciferase in Jurkat cells: Bottom,NFAT-luciferase in Jurkat cells: LogEC50,NFAT-luciferase in Jurkat cells: Span,NFAT-luciferase in Jurkat cells: Top
B2,39.9,-1.52,1280,1320
B3,49.9,-0.801,1150,1200
B4,52.8,-1.66,1400,1460

# Target: T3, human CD3
# Experiment: cell-based or functional assay
# Remark: another data set of the same source
Binder,NFAT-luciferase in Jurkat cells: Bottom,NFAT-luciferase in Jurkat cells: LogEC50,NFAT-luciferase in Jurkat cells: Span,NFAT-luciferase in Jurkat cells: Top
B2,-1040,-0.58,121000,120000
B3,1570,-0.0022,130000,132000
B1,2830,-0.154,17200,20000

# Target: T1, human CEA
# Experiment: cell-based or functional assay
# Remark: another data set of the same source
Binder,lysis of LS-174T cells by PBMC: Bottom,lysis of LS-174T cells by PBMC: LogEC50,lysis of LS-174T cells by PBMC: Span,lysis of LS-174T cells by PBMC: Top
B2,13.8,-2.69,91.7,106
B3,17.3,-2.81,89.2,106
B1,12.6,-2.18,91.8,104
B4,13.1,-2.86,92.2,105

# Target: T1, human CEA
# Experiment: cell-based or functional assay
# Remark: another data set of the same source
Binder,lysis of KATO III cells by PBMC: Bottom,lysis of KATO III cells by PBMC: LogEC50,lysis of KATO III cells by PBMC: Span,lysis of KATO III cells by PBMC: Top
B2,60.1,-1.85,53,113
B3,52.5,-0.944,51.7,104
B1,58.1,-0.194,36.2,94.3
B4,54.7,-2.21,48.1,103

# Target: T1, human CEA
# Experiment: cell-based or functional assay
# Remark: another data set of the same source
Binder,cytolysis of KATO-III cells by PBMC: EC50,cytolysis of LS174T cells by PBMC: EC50,cytolysis of MKN-45 cells by PBMC: EC50
B1,0.132 nM,0.0003 nM,0.0003 nM

# Target: T3, human CD3
# Experiment: flow cytometry on Jurkat cells
# Experimental: (§1) Mean fluorescence intensity (MFI) was determined by Flow cytometry. […] Mean fluorescence intensity (MFI) was determined by Flow cytometry.
row,Binder,EC50
1,B1,113 nM

# Target: T3, human CD3
# Experiment: flow cytometry on human PBMC (ND 12)
# Experimental: as §1
row,Binder,EC50
1,B1,81 nM

# Target: T2, Cynomolgus monkey CD3 protein
# Experiment: ELISA on cynomolgus monkey CD3 protein, curve fit
Binder,Bottom (best-fit),LogEC50,Span (best-fit),Top (best-fit)
B2,0.0164,-1.65,4.09,4.1
B3,0.0666,-1.32,4.02,4.09
B1,0.00678,-1.75,4.09,4.1
B4,0.00466,-1.94,4.01,4.02
